Data reported in the supplement of paper PMC10126150.
± gives the standard deviation of the averaged measurements.

test system: ATP; test: switch fluorescence ratio, 500 uM ATP over buffer (Cy3 cluster intensity, sum of 5 cycles each) (fold (ratio)); higher = stronger signal-on switching upon ATP binding; sequences stand for … in TCGTCGGCAGCGTCAGATGTGTATAAGAGACAGTTTTTTTTTTTTTTTTTTTTTTTTT…TC; settings: aptamer strand: ATP DNA aptamer (quencher-CACCTGGGGGAGTATTGCGGAGGAAGG + anchor), 100 nM annealed; ATP concentration: 500 uM
Procedure, shortened: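 Between each of five buffer/ATP cycles, the flow-cell was stripped with NaOH and re-annealed. Each cycle imaged Cy3-labelled switching-strand clusters, annealed to 100 nM quencher-labelled ATP aptamer on a modified Illumina MiSeq flow-cell, first in selection buffer and then after 15 min with 500 uM ATP at 22 °C. The fluorescence ratio is summed target-cycle over summed buffer-cycle Cy3 intensity per cluster, averaged per switch-domain sequence, with clusters outside 100-1000 RFU excluded.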
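Note: ATP exposure 15 min at 22 °C before imaging.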

Sequence	switch fluorescence ratio
TTGGACTATA	1.02 ± 0.043
TTGGACTGGT	1.04 ± 0.039
TTGGAGAAAT	1.05 ± 0.025
TTGGAGATAG	1.07 ± 0.1
TTGGAGCGTG	1.003 ± 0.0015
TTGGAGGAAT	1.02 ± 0.014
TTGGAGGGCT	0.978 ± 0.0032
TTGGAGTACT	1.09 ± 0.24
TTGGAGTATA	1.93 ± 0.28
TTGGAGTTGG	0.976 ± 0.043
TTGGATACCT	1.05 ± 0.13
TTGGATACGT	1.03 ± 0.091
TTGGATAGTT	1.09 ± 0.16
TTGGATCAAC	1.04 ± 0.051
TTGGATGCCT	1.01 ± 0.047
TTGGATGTGG	1.02 ± 0.022
TTGGATTATG	1.01 ± 0.012
TTGGATTCAT	0.995 ± 0.016
TTGGATTGAC	1.06 ± 0.025
TTGGCAAATG	0.988 ± 0.025
TTGGCAGGGA	0.998 ± 0.018
TTGGCATACG	1.06 ± 0.034
TTGGCATACT	2.64 ± 2.2
TTGGCATATG	1.07 ± 0.085
TTGGCATCAC	1.06 ± 0.045
TTGGCCGGAG	1.001 ± 0.0084

Sequence	switch fluorescence ratio
TTGGCCGGGT	1.042 ± 0.0059
TTGGCCTAAA	0.954 ± 0.04
TTGGCCTCGA	1.01 ± 0.039
TTGGCCTTAG	0.972 ± 0.015
TTGGCGAGGG	1.008 ± 0.0081
TTGGCGGCTT	1.02 ± 0.032
TTGGCGGGAC	0.9819 ± 0.0036
TTGGCGGGCA	0.998 ± 0.027
TTGGCGTAAG	1.03 ± 0.045
TTGGCGTATT	1.01 ± 0.071
TTGGCGTCCG	0.988 ± 0.047
TTGGCTAATT	1 ± 0.034
TTGGGAAGTA	0.985 ± 0.016
TTGGGACGGT	0.9972 ± 0.0076
TTGGGAGGAG	1.01 ± 0.025
TTGGGAGGCG	0.97 ± 0.039
TTGGGATGTG	0.986 ± 0.053
TTGGGATTAG	1.01 ± 0.029
TTGGGCATTT	1.05 ± 0.089
TTGGGCCCAA	1 ± 0.041
TTGGGCCGGG	0.991 ± 0.02
TTGGGCCTGA	1.002 ± 0.0032
TTGGGCGCAG	0.967 ± 0.019
TTGGGCGTGT	0.987 ± 0.021
TTGGGCTAGG	1 ± 0.0054
TTGGGCTTTT	0.996 ± 0.017

Sequence	switch fluorescence ratio
TTGGGGAAAC	0.99 ± 0.029
TTGGGGACGA	0.997 ± 0.032
TTGGGGACTT	1.02 ± 0.07
TTGGGGAGCT	1.04 ± 0.014
TTGGGGATAA	1.07 ± 0.09
TTGGGGATAG	1.11 ± 0.17
TTGGGGCCAG	1.09 ± 0.12
TTGGGGCCGT	1.04 ± 0.047
TTGGGGCTTA	1.03 ± 0.038
TTGGGGCTTT	1.02 ± 0.056
TTGGGGGAGA	1.02 ± 0.038
TTGGGGGAGG	0.989 ± 0.021
TTGGGGGATA	1.09 ± 0.24
TTGGGGGG	1.004 ± 0.0069
TTGGGGGGGA	1.02 ± 0.13
TTGGGGGGGC	0.997 ± 0.039
TTGGGGGTCT	0.968 ± 0.044
TTGGGGTAGA	1.05 ± 0.031
TTGGGGTATA	1.03 ± 0.055
TTGGGGTATG	1.01 ± 0.012
TTGGGGTT	0.9662 ± 0.0019
TTGGGGTTTA	1.03 ± 0.026
TTGGGTAATG	1.01 ± 0.027
TTGGGTACAT	1.02 ± 0.011
